Measurements reported in patent US20240139289A1 (EXTEND BIOSCIENCES, published 2024).
Ends that are not written are not given here.

Tests used:
[1] = biological target: T1, human parathyroid hormone receptor 1 (PTHR1) (human, UniProt Q03431 27-593); assay: cell-based or functional assay
T1 sequence (looked up): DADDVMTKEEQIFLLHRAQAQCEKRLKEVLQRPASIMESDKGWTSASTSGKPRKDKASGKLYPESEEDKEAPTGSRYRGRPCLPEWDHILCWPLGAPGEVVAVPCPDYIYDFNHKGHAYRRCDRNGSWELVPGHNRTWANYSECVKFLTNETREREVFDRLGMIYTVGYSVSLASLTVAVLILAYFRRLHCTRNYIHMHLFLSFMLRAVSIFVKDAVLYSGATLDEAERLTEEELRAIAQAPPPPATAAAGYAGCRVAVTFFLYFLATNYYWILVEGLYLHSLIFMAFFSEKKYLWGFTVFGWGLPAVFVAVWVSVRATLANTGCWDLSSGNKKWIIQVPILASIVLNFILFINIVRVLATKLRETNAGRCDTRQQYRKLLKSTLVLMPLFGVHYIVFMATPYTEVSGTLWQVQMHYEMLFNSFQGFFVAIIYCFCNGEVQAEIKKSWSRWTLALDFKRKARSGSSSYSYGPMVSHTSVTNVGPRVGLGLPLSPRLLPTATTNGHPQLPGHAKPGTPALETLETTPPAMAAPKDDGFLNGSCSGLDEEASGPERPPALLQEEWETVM

[2] = biological target: T1, human parathyroid hormone receptor 1 …; assay: cell-based or functional assay; remark: listed apart in the source
[3] = biological target: T2, Vitamin D binding protein (DBP) (Homo sapiens (Human)) (UniProt P02774); assay: BLI (Octet Red96), biotinylated EXT607 on streptavidin tips, DBP 0-75 µM
T2 sequence: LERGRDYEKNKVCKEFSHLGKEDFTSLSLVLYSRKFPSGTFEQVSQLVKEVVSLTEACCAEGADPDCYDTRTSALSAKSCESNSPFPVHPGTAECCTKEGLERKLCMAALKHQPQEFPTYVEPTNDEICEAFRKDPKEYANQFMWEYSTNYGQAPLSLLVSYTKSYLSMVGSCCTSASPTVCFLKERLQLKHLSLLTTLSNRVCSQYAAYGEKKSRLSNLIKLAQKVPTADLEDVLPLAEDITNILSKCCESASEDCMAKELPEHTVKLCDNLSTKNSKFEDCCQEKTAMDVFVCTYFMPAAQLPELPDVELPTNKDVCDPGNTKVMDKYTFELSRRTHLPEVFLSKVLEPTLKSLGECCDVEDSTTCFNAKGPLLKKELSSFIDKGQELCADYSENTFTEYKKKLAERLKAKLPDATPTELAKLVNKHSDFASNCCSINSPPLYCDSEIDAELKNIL

[4] = biological target: T2, Vitamin D binding protein (DBP) (Homo sapiens (Human)); assay: BLI (Octet Red96), biotinylated EXT607 on streptavidin tips, DBP 0-75 µM, steady-state fit
[5] = biological target: T2, Vitamin D binding protein (DBP) (Homo sapiens (Human)); assay: BLI (Octet Red96), biotinylated EXT608 on streptavidin tips, DBP 0-75 µM
[6] = biological target: T2, Vitamin D binding protein (DBP) (Homo sapiens (Human)); assay: BLI (Octet Red96), biotinylated EXT608 on streptavidin tips, DBP 0-75 µM, steady-state fit

Binder: SVSEIQLMHNLGKHLNSMERVEWLRKKLQDVHNFC-NH2 (not fully specified (residue 35); also: acetate salt) [EXT611 (PTH-cys-PEG12-VitD)]
- PTHR1 EC50, calcium mobilization assay in agonist mode [1]: 32.3 nM

B1: EXT607 (PTH(1-34)-Cys-PEG36-25-hydroxy-vitamin D conjugate, C-terminal acid, R = OH) (peptide)
peptide: SVSEIQLMHNLGKHLNSMERVEWLRKKLQDVHNFC
modifications: C-terminal Cys (position 35) carries succinimido-propionylamino-PEG36-propionyl-aminopropyl-25-hydroxy-Vitamin D on its thiol; C-terminus is free acid (-OH)
- EC50, cell-based calcium flux assay in agonist mode (percent efficacy) [2]: 21 nM
- maximum response (BLI shift) [3]: 1.79 nm
- Kd [4]: 8100 nM

B2: EXT608 (PTH(1-34)-Cys-PEG36-25-hydroxy-vitamin D conjugate, C-terminal amide, R = NH2) (peptide)
peptide: B1 peptide
modifications: C-terminal Cys (position 35) carries succinimido-propionylamino-PEG36-propionyl-aminopropyl-25-hydroxy-Vitamin D on its thiol; C-terminal amide (-NH2)
- EC50, cell-based calcium flux assay in agonist mode (percent efficacy) [2]: 22 nM
- PTHR1 EC50, calcium mobilization assay in agonist mode [1]: 28.6 nM
- maximum response (BLI shift) [5]: 1.79 nm
- Kd [6]: 5200 nM

B3: EXT617 (PTH-PEG20 kDa-VitD) (peptide)
peptide: B1 peptide
modifications: C-terminal Cys thiol conjugated through maleimide-PEG ~20,000 Da (~455 units) to VitD-NH2 (25-hydroxy vitamin D, C3 position); C-terminal amide
- fold increase of PTHR1 EC50 against the conjugates with shorter PEG linkers [2]: ~7 fold
- PTHR1 EC50, calcium mobilization assay in agonist mode [1]: 221 nM

B4: EXT616 (PTH-PEG10 kDa-VitD) (peptide)
peptide: B1 peptide
modifications: C-terminal Cys thiol conjugated through maleimide-PEG ~10,000 Da (~227 units) to VitD-NH2 (25-hydroxy vitamin D, C3 position); C-terminal amide
- PTHR1 EC50, calcium mobilization assay in agonist mode [1]: 33.6 nM

Binder: SVSEIQLMHNLGKHLNSMERVEWLRKKLQDVHNFC-NH2 (not fully specified (residue 35); also: acetate salt) [EXT606 (PTH-cys-PEG24-VitD)]
- PTHR1 EC50, calcium mobilization assay in agonist mode [1]: 30.5 nM

Binder: SVSEIQLMHNLGKHLNSMERVEWLRKKLQDVHNFC-NH2 (not fully specified (residue 35); also: acetate salt) [EXT615 (PTH-PEG5 kDa-VitD)]
- PTHR1 EC50, calcium mobilization assay in agonist mode [1]: 29.9 nM
